In PMC4003566:

Biological target: human α7 nAChR TM domain (human)
Experiment: SEC-MALS

- stoichiometry N: 5
Substance: human α7 nAChR TM domain (domain or fragment)
